Biological target: Labeled Vip3Aa (MST) (Bacillus thuringiensis)
Assay: MST; labeled Vip3Aa 10 nM, GST-FGFR-N titrated 0.3 nM to 10 µM; 25 mM HEPES pH 7.5, 0.05% Tween-20, 150 mM NaCl; 25 °C; Hill equation fit; three independent experiments

GST-FGFR-N (extracellular regions of Sf-FGFR, aa 27-415, with a GST tag) (domain or fragment)
Kd: 1.43 µM

Source: article PMC6315849
